Laboratory results reported in patent publication US20220153859A1 (ANOKION, published 2022).
Residue numbers refer to the chain shown, from its start.

T1: Human glycophorin A on human erythrocytes (human, UniProt P02724 20-150)
T1 construct: whole, on cells; Target of the flow cytometry assays on human erythrocytes; also called human GPA; hGPA
T1 sequence (looked up): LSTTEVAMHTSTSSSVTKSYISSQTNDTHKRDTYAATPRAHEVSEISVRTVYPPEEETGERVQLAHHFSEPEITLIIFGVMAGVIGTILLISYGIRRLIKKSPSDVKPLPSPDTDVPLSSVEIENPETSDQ

T2: Human glycophorin A extract (hGPA extract) (human, UniProt P02724 20-150)
T2 construct: also called human GPA extracted from red blood cells (extract)
T2 sequence (looked up): T1 sequence (looked up)

B1: Humanized & affinity matured 10F7-M10 Fab clone L1+2-7 (Fab)
heavy: EVQLLESGGGLVQPGKSLRLSCKASGYTFNSYFMHWVRQAPGKGLEWVGMIRPNGGTTDYNEKFKNRFTLSVDKSKNTAYLQMNSLRAEDTAVYYCARWEGSYYALDYWGQGTASTKGPSVFPLAPSSKSTSGGTAALGCLVKDYFPEPVTVSWNSGALTSGVHTFPAVLQSSGLYSLSSVVTVPSSSLGTQTYICNVNHKPSNTKVDKKVEPKSC
light: EITLTQSPATLSLSPGERATLSCRASSNVHHMYWYQQKPGQAPRLWIHHTSLLASGIPDRFSGSGSGTDYTLTISRLEPEDFAVYYCQQFTSSPYTFGQGTKVEVKRTVAAPSVFIFPPSDEQLKSGTASVVCLLNNFYPREAKVQWKVDNALQSGNSQESVTEQDSKDSTYSLSSTLTLSKADYEKHKVYACEVTHQGLSSPVTKSFNRGEC
notes: Soluble Fab from HEK cells; all domains other than VL are the same as wild-type 10F7-M10; also called HH-HH-L
B2: Humanized & affinity matured 10F7-M10 Fab clone L1+2-19 (Fab)
heavy: B1 heavy
light: B1 light with H30Y, H31Q, L52F
notes: the tie is by these residues, not by the label; also called YQ-HH-F
B3: Humanized & affinity matured 10F7-M10 Fab clone L1+2-16 (Fab)
heavy: B1 heavy
light: B1 light with H30F, H31Q, L52E
notes: Soluble Fab from HEK cells; all domains other than VL are the same as wild-type 10F7-M10; also called FQ-HH-E
B4: hF-3-103M1 Fab (humanized 3-103, clone M1; parental / wild-type Fab) (Fab, V domains shown)
VH: QVQLVQSGAEVKKPGASVKVSCTASGFNIKDTYMLWVRQAPGQGLEWMGRIDPANANSRYDPKFQGRVTITADTSTNTAYMELSSLRSEDTAVYYCVDGYMFAYWGQGTLVTVSS
VL: DVVMTQTPLSLSVTPGQPASISCKSSQSLLYSNGKTYLHWLLQKPGQSPQRLIYLVSKLDSGVPDRFSGSGSGTDFTLKISRVEAEDVGVYYCVQGTHFPLTFGQGTKLEIKR
notes: Soluble humanized Fab; also called parent Fab

Assays:
[1] = biological target: T1, Human glycophorin A on human …; experiment: flow cytometry (FACS) on human erythrocytes, soluble Fab
[2] = biological target: T2, Human glycophorin A extract (hGPA …); experiment: Biacore SPR, hGPA extract, apparent; biphasic off-rate to fit data
[3] = biological target: T2, Human glycophorin A extract (hGPA …); experiment: Octet BLI, hGPA extract, apparent; biphasic off-rate to fit data
[4] = biological target: T2, Human glycophorin A extract (hGPA …); experiment: Biacore SPR, hGPA extract, apparent KD; biphasic off-rate to fit data
[5] = biological target: T2, Human glycophorin A extract (hGPA …); experiment: Octet BLI, hGPA extract, apparent KD; biphasic off-rate to fit data
[6] = biological target: T1, Human glycophorin A on human …; experiment: flow cytometry on human erythrocytes, Fab in culture supernatant [C]
How it was run: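 Fabs chosen from one CDR library by next-generation-sequencing enrichment were expressed as soluble Fabs in HEK cells in high-throughput format. Fab concentration in the culture supernatant was quantified by Octet biolayer interferometry. Supernatant Fabs were tested for binding to human erythrocytes by flow cytometry, read as median fluorescence intensity curves. These curves were compared with the parental Fab.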

Binder	EC50 [1]	koff [2]	kon [2]	koff [3]	kon [3]	Kd [4]	Kd [5]	binding result [6]
B1	6.9 nM	0.00371 s⁻¹	160000 M⁻¹ s⁻¹	0.0037 s⁻¹	160000 M⁻¹ s⁻¹	23.2 nM	23 nM	–
B2	4.6 nM	0.00326 s⁻¹	477000 M⁻¹ s⁻¹	0.0033 s⁻¹	480000 M⁻¹ s⁻¹	6.83 nM	6.83 nM	–
B3	4.6 nM	0.00376 s⁻¹	608000 M⁻¹ s⁻¹	0.0038 s⁻¹	610000 M⁻¹ s⁻¹	6.18 nM	6.18 nM	–
B4	–	–	–	–	–	–	–	binds
